Data on 4 molecules can be found in patent US20230012273A1 (Boehringer Ingelheim, published 2023).

Numbering of substitutions follows the chain as printed.

In assay [1] the target is T1, full-length human SIRPαV2 (CAA71403.1) on cells (human, UniProt P78324 31-504).
T1 construct: one molecule for CHO-K1 and Expi-CHO transfectants (CAA71403.1) and for endogenous V2 on THP-1 cells and on CD14+ monocytes of V2/V2 donors; also called CHO-hSIRPαV2; αV2 WT
Kind of assay: flow cytometry, competition with CD47 tetramer, CHO-K1 cells; * inhibition plateaus at <100%. The method, then: Cells are washed, fixed, and analyzed by flow cytometry. Median fluorescent intensity is determined and used as a measure of CD47 binding.
In general terms: A flow cytometer gives signals particle by particle.

Assay [2] addresses T2, full-length human SIRPβ1 (NP_006056.2) on cells (human, UniProt O00241 30-398).
T2 construct: also called β1 WT
The assay is described as follows: flow cytometry, U937 SIRPα-KO cells expressing full-length human SIRPβ1. The procedure:
Antibody binding to cells expressing full-length human SIRPβ1 (NP_006056.2) and SIRPβL (NP_001129316.1) is evaluated by flow cytometry. SIRPβ1- or SIRPβL-expressing U937^{SIRPα KO} cells are blocked with donkey IgG and incubated on ice with increasing concentrations of antibodies for 60 minutes, washed and stained with AF647-conjugated donkey F(ab′)₂ anti-human IgG secondary reagent. Cells are washed, fixed, and analyzed by flow cytometry. Median fluorescent intensity is determined and used as a measure of antibody binding.

Assay [3] has as its target T3, full-length human SIRPγ (NP_061026.2) on cells (human, UniProt Q9P1W8 29-387).
T3 construct: on CHO and Expi-CHO cells; endogenous on primary human CD3+ T cells; also called γ WT
The assay is described as follows: flow cytometry, primary human CD3+ T cells; endogenous SIRPγ on primary human CD3+ T cells. The method, then: Antibody binding to primary human T cells expressing endogenous SIRPγ is evaluated by flow cytometry. Human peripheral blood mononuclear cells (PBMCs) are blocked with donkey IgG and incubated on ice with increasing concentrations of antibody for 60 minutes, washed and stained with AF647-conjugated donkey F(ab′)₂ anti-human IgG secondary reagent. […] Cells are washed, fixed, and analyzed by flow cytometry. Median fluorescent intensity of CD3+ gated population is determined and used as a measure of antibody binding.

The target of assay [4] is T4, human SIRPβL/SIRPβ1v3 extracellular domain + His-tag (NP_001129316.1) (human, UniProt Q5TFQ8 30-371).
T4 construct: also called hSIRPβ1v3; HuSIRPβ1v3
The assay is described as follows: SPR, Ab captured, ECD-His analyte. Summed up:
(§1)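 SPR; Ab capture surface, ethanolamine-deactivated (1M, 420 s, 10 μl/min). Analyte: SIRP ECD+His, 2-fold dilution series in 1×HBS-EP+. Inject 300 s @ 30 μl/min; dissoc. 600 s.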
For orientation: SPR reads the build-up and loss of mass on a sensor chip optically.

For assay [5], the target named is T5, human SIRPβ1 extracellular domain + His-tag (NP_006056.2) (human, UniProt O00241 30-371).
T5 construct: also called hSIRPβ1; HuSIRPβ1
Kind of assay: SPR, Ab captured, ECD-His analyte. Summed up:
as §1

Assay [6] addresses T6, human SIRPγ extracellular domain + His-tag (NP_061026.2) (human, UniProt Q9P1W8 29-360).
T6 construct: also called hSIRPγ; HuSIRPγ
Kind of assay: SPR, Ab captured, ECD-His analyte. Summed up: as §1

In assay [7] the target is T7, full-length cyno SIRPα (NP_001271679) on CHO-K1 cells, clone HC6 (cynomolgus monkey, UniProt A0A2K5VYQ9).
T7 construct: whole, on cells
T7 sequence: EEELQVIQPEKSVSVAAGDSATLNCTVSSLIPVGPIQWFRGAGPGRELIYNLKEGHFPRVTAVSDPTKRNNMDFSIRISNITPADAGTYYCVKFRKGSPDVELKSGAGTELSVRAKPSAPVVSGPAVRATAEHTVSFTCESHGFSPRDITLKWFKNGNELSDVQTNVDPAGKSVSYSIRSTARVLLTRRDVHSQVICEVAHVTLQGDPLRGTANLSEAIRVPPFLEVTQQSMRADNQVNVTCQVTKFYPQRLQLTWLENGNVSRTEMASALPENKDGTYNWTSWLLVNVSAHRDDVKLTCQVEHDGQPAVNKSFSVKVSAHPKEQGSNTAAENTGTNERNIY
Kind of assay: flow cytometry, CHO-K1 cells. The procedure: (§2) Antibody binding to cells expressing cynomolgus (cyno) SIRPα was evaluated by flow cytometry. CHO-K1 cells expressing full-length cyno SIRPα; derived from protein sequence accession numbers (A) EGM-02252; (B) XP_015313155; or (C) NP_001271679, are blocked with donkey IgG and incubated on ice with increasing concentrations of antibodies for 60 minutes, washed and stained with AF647-conjugated donkey F(ab′)₂ anti-human IgG secondary reagent. Cells are washed, fixed, and analyzed by flow cytometry. Median fluorescent intensity is determined and used as a measure of antibody binding.

Assay [8] deals with T8, full-length cyno SIRPα (XP_015313155) on CHO-K1 cells, clone P3HD10 (cynomolgus monkey).
T8 chain: T7 sequence with A62P, V163F, L185V
The assay is described as follows: flow cytometry, CHO-K1 cells. The procedure: as §2

Assay [9] has as its target full-length human SIRPβ1 D→H on Expi-CHO cells (human, UniProt O00241 30-398). Kind of assay: flow cytometry, Expi-CHO cells. The method, then:
These cells are blocked with donkey IgG and incubated on ice with increasing concentrations of antibodies for 60 minutes, washed and stained with AF647-conjugated donkey F(ab′)₂ anti-human IgG antibodies. Stained cells are washed, fixed, and analyzed by flow cytometry. Median fluorescent intensity is determined and used as a measure of antibody binding.

B1: Antibody E (antibody, human IgG1, kappa, L234A L235A)
heavy: not shown
light: DIVMTQSPLSLPVTPGEPASISCKSSQSLLYSNGYNYLDWYLQRPGQSPQLLIYLGSNRASGVPDRFSGSGSGTDFTLKISRVEAEDVGVFYCMQALQTPLTFGGGTKVEIKRTVAAPSVFIFPPSDEQLKSGTASVVCLLNNFYPREAKVQWKVDNALQSGNSQESVTEQDSKDSTYSLSSTLTLSKADYEKHKVYACEVTHQGLSSPVTKSFNRGEC
As a reminder, the IC50 is the point on the concentration scale where inhibition reaches its midpoint. The low end stands for higher potency, the high end for lower potency. Turning to B1, in [1], the IC50 stood at 0.7 nM.

B2: Antibody E22 (antibody, human IgG1, kappa, L234A L235A, V domains shown)
VH: QVQLQESGPGLVKPSETLSLTCTVSGGSIRDYYWSWIRQPPGKGLEWIGFIYYNGRTFYQSSLKSRVTISLDTSKNQFSLKMTSVTAADTAVYYCARVRAYSGIGLDGTDVWGQGTTVTVSS
VL: DIVMTQSPLSLPVTPGEPASISCRSSQSLLYSTGYTYLDWYLQRPGQSPQLLIYGGSSRASGVPDRFSGSGSGTDFTLKISRVEAEDVGVFYCGQALQTPLTFGQGTKVEIKR
For the molecule B2, the binding result in assay [2] is given as “no binding (tested: about 200 nM)”.

B3: Antibody A (antibody, human IgG1, kappa, L234A L235A)
heavy: not shown
light: DIQMTQSPSSLSASVGDRVTITCRASQDINNYLAWFQQKPGKAPKSLIYTASSLHSGVPSKFSGSGSGTDFTLTISSLQPEDFATYYCQQYVSYPYTFGQGTKLEIKRTVAAPSVFIFPPSDEQLKSGTASVVCLLNNFYPREAKVQWKVDNALQSGNSQESVTEQDSKDSTYSLSSTLTLSKADYEKHKVYACEVTHQGLSSPVTKSFNRGEC
The Kd is the concentration at which binding is half-saturated. Turning to B3, the binding result in assay [3] was “no binding”; in assay [4] it was “no binding (tested: 100 nM)”; in assay [6] it was “no binding (tested: 1000 nM)”; in assay [9], “no binding”. Further, in [5], the dissociation constant Kd worked out at 64.8 nM. For the same molecule, the “fold weaker EC50 than on clone H3A9” value in [7] and in assay [8] was not above 5 fold in each case.

B4: Antibody A10 (antibody, human IgG1, kappa, L234A L235A)
heavy: not shown
light: B3 light
As to B4, the binding result is listed as “no binding (tested: 100 nM)” in [4], “no binding (tested: 1000 nM)” in assay [6] and “no binding” in assay [9]. Also, in [5], the dissociation constant (Kd) is 69 nM. The “fold weaker EC50 than on clone H3A9” value in [7] and in assay [8] was not above 5 fold each time.
